B1: CROPs fragment of TcdB (TcdB1831-2366) as used in the cell-binding assays (other)
chain: MVSGLIYINDSLYYFKPPVNNLITGFVTVGDDKYYFNPINGGAASIGETIIDDKNYYFNQSGVLQTGVFSTEDGFKYFAPANTLDENLEGEAIDFTGKLIIDENIYYFDDNYRGAVEWKELDGEMHYFSPETGKAFKGLNQIGDYKYYFNSDGVMQKGFVSINDNKHYFDDSGVMKVGYTEIDGKHFYFAENGEMQIGVFNTEDGFKYFAHHNEDLGNEEGEEISYSGILNFNNKIYYFDDSFTAVVGWKDLEDGSKYYFDEDTAEAYIGLSLINDGQYYFNDDGIMQVGFVTINDKVFYFSDSGIIESGVQNIDDNYFYIDDNGIVQIGVFDTSDGYKYFAPANTVNDNIYGQAVEYSGLVRVGEDVYYFGETYTIETGWIYDMENESDKYYFNPETKKACKGINLIDDIKYYFDEKGIMRTGLISFENNNYYFNENGEMQFGYINIEDKMFYFGEDGVMQIGVFNTPDGFKYFAHQNTLDENFEGESINYTGWLDLDEKRYYFTDEYIAATGSVIIDGEEYYFDPDTAQLVISE
B2: GST-tagged CROPs region of TcdB (residues 1831-2366) (other)
chain: MVSGLIYINDSLYYFKPPVNNLITGFVTVGDDKYYFNPINGGAASIGETIIDDKNYYFNQSGVLQTGVFSTEDGFKYFAPANTLDENLEGEAIDFTGKLIIDENIYYFDDNYRGAVEWKELDGEMHYFSPETGKAFKGLNQIGDYKYYFNSDGVMQKGFVSINDNKHYFDDSGVMKVGYTEIDGKHFYFAENGEMQIGVFNTEDGFKYFAHHNEDLGNEEGEEISYSGILNFNNKIYYFDDSFTAVVGWKDLEDGSKYYFDEDTAEAYIGLSLINDGQYYFNDDGIMQVGFVTINDKVFYFSDSGIIESGVQNIDDNYFYIDDNGIVQIGVFDTSDGYKYFAPANTVNDNIYGQAVEYSGLVRVGEDVYYFGETYTIETGWIYDMENESDKYYFNPETKKACKGINLIDDIKYYFDEKGIMRTGLISFENNNYYFNENGEMQFGYINIEDKMFYFGEDGVMQIGVFNTPDGFKYFAHQNTLDENFEGESINYTGWLDLDEKRYYFTDEYIAATGSVIIDGEEYYFDPDTAQLVISE

Columns and labels:
[1] = target: T1, CSPG4 endogenous on HeLa cells (human, UniProt Q6UVK1 30-2322); assay: binding to HeLa cells; largely abolished in CSPG4^-/- cells
T1 construct: whole, on cells
T1 sequence (Q6UVK1 30-2322): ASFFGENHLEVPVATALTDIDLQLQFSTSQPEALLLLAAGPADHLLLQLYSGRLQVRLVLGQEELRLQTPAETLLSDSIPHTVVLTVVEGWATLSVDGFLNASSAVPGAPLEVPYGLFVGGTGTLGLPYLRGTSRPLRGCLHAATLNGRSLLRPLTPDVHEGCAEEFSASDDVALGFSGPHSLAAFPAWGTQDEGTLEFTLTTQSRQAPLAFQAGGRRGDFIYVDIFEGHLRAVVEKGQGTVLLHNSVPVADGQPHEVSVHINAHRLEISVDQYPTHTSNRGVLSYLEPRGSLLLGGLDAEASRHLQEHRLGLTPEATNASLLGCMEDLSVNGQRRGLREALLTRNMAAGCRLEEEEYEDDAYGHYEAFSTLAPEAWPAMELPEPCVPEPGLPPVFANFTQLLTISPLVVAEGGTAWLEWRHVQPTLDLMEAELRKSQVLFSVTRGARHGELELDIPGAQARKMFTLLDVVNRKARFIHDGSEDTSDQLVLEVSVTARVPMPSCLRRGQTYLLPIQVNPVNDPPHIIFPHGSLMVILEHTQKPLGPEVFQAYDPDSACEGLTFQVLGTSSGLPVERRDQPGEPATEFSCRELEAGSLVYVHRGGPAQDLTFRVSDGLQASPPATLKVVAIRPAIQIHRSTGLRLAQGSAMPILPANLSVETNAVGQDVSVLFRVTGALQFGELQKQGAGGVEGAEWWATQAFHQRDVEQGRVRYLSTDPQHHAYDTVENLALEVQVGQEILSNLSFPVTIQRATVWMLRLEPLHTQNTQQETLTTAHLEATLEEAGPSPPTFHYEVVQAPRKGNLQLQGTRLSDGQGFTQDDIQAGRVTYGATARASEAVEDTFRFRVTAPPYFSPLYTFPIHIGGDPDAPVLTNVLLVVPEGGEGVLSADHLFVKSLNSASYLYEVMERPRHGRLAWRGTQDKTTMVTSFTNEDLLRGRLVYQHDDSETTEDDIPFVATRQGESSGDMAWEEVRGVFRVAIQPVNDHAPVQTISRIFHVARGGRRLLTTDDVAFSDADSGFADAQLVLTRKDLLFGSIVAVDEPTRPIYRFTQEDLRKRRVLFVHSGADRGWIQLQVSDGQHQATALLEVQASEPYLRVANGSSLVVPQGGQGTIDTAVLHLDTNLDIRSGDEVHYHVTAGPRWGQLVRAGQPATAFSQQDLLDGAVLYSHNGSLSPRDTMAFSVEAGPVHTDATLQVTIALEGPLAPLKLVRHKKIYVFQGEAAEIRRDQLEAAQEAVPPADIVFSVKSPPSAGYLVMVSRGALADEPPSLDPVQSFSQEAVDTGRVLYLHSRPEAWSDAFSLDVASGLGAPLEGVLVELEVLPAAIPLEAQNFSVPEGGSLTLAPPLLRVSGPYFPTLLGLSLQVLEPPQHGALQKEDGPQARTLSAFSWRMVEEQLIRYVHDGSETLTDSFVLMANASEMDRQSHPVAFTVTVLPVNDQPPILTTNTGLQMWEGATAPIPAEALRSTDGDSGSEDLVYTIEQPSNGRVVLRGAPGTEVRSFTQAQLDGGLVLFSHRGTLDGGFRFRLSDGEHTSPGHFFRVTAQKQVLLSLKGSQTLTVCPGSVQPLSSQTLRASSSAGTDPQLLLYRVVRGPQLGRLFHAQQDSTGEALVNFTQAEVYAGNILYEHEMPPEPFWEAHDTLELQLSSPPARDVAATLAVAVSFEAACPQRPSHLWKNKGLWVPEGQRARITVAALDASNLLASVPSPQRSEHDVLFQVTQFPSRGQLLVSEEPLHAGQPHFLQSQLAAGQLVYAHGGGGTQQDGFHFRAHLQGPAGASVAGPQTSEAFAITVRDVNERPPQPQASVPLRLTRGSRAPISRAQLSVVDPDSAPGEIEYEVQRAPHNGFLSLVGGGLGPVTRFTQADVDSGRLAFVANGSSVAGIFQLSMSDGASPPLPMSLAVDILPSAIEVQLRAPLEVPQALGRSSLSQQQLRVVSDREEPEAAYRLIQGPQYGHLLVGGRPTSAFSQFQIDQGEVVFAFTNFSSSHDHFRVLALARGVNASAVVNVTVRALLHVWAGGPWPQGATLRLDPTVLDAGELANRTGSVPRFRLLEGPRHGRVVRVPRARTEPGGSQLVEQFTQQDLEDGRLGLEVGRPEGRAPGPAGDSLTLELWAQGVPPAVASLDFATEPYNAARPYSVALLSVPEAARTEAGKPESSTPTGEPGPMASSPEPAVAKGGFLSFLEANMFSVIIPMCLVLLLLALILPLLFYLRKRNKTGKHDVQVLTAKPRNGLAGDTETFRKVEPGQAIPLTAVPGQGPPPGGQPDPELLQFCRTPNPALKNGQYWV

[2] = target: T2, FZD2-CRD-Fc, recombinant human protein (ACRO Biosystems) (human, UniProt Q14332 24-190); assay: GST pull-down, immunoblot
T2 construct: domain: cysteine-rich domain (CRD); also called Fc-tagged FZD2-CRD; FZD2-Fc; not shown: Fc tag of the purchased protein

| Binder | binding result [1] | binding result [2] |
| --- | --- | --- |
| B1 | binds | – |
| B2 | – | no binding (tested: 10 nM FZD2-CRD-Fc) |
